# Results as given in publication PMC4621513, “APOBEC3G Interacts with ssDNA by Two Modes: AFM Studies”.
# B1: 69 nt deaminase specific ssDNA (ssDNA)
# DNA: TACGTGTAGGAATTATATTAAAGAGAAAGTGAAACCCAAAGAATGAAAACCCAAATGTTAGAATTGTTA
# modifications: 5' thiol
# Biological target: APOBEC3G (A3G) (UniProt Q9HC16 1-384)
# Test: AFM force spectroscopy; two binding modes; stronger and more stable complexes than with nonspecific ssDNA; Force spectroscopy probing buffer: 50 mM HEPES, 100 mM NaCl, 5 mM MgCl2, 1 mM DTT (pH and temperature not given); imaging buffer not in the material
# Settings: protein: recombinant; tags: mycHis (C-terminal)
# Sequence of APOBEC3G (A3G) (Q9HC16 whole entry): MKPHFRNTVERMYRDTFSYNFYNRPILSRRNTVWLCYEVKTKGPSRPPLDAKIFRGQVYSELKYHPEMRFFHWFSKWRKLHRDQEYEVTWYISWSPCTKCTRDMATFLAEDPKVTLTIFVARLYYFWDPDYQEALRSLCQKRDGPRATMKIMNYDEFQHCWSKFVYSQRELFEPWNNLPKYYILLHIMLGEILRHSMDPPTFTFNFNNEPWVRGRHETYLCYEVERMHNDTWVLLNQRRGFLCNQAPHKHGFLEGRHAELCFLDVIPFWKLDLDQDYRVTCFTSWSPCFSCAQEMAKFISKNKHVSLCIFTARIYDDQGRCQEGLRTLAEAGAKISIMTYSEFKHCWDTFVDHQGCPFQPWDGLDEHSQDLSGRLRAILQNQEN
binder,measurement,value
B1,binding result,binds
